Measurements from US20160237160A1 (Bayer, published 2016).
One block for each binder: values may come before it.

What was measured:
[1] = target: T1, TPP-1984 (hTNFRSF12Aaa28-68-CT-His) (human); test: ELISA, TPP-1984 coated at 1 µg/ml, biotinylated IgG at 0.08 µg/ml (open bar) and 0.3 µg/ml (filled bar), Streptavidin-HRP, Amplex Red
T1 construct: monomeric ectodomain with HIS6 tag; also called TWEAKR(28-68)-HIS; C-terminally truncated TWEAKR ectodomain
T1 chain: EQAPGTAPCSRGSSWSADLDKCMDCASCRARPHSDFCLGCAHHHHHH
Description: (§1) Detection was done with Streptavidin-HRP and Amplex-Red substrate.
(§2) To analyze for binding, 1 μg/ml of the respective dimeric TWEAKR-Fc construct were coated and, 0.3 μg/ml and 0.08 μg/ml of biotinylated IgG were used as soluble binding partner. Detection was done with Streptavidin-HRP and Amplex-Red substrate.

[2] = target: T2, TPP-2614 (TweakR-ECD-34-68-hIgGFc-His-D47A) (human); test: ELISA, IgG coated 1 ug/ml, TWEAKR variant 250 ng/ml, anti-HIS HRP (FIG. 6C)
T2 construct: also called D47A TWEAKR mutein
Description: Antibodies were coated (1 μg/ml), TWEAKR variant was added at 250 ng/ml, detection via anti-HIS HRP. […] Antibodies were coated (1 μg/ml), TWEAKR variant was added 250 ng/ml, detection via anti-HIS HRP.

[3] = target: T3, Osteoprotegerin (TNFRSF11B) Fc fusion protein (Human, UniProt O00300 22-194, limits assumed); test: ELISA, Fc fusion protein coated at 1 µg/ml, TPP-2090 at 75 nM, Amplex Red;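 also: binding reported as ELISA signal intensity in Rfu against a panel of TNF receptor superfamily members presented as Fc fusion proteins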
T3 construct: extracellular domain; bought
T3 sequence (looked up): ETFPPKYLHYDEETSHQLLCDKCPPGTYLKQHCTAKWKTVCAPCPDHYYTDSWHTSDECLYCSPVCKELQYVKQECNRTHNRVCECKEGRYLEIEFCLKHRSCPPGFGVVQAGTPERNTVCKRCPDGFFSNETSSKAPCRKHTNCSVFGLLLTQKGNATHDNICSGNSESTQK
Excerpt: (§3) Shown is the result of an ELISA: Y is “ELISA signal intensity [Rfu]”; X are “TNF receptor superfamily proteins tested (Fc-fusion proteins)”: 1 is “TWEAKR”; 2 is “TWEAKR”; 3 is “Apo-3”; 4 is “Trail-R1”; 5 is “Trail-R2”; 6 is “CD385”; 7 is “CD95”; 8 is “Rank”; 9 is “TNF-R1”; 10 is “TNF-R2”; 11 is “BAFF-R”; 12 is “DcR3”; 13 is “BCMA”; 14 is “TACI”; 15 is “OX40”; 16 is “CD30”; 17 is “CD27”; 18 is “CD40”; 19 is “Osteoprotegerin”; 20 is “EDAR”; 21 is “GITR”; 22 is “HVEM”; 23 is “NGF R”; 24 is “Trail R3”; 25 is “Lymphotioxin B R”; 26 is “Trail R4”; 27 is “EDA2R”; 28 is “TROY”; 29 is “RELT”; 30 is “4-1BB”.
(§4) To collect dose-response data a serial 3fold dilution of biotinylated IgG starting with a concentration of 2 μM was used as soluble binding partner. Detection was done with anti-hIgG1-HRP and Amplex Red.

[4] = target: T4, RELT (TNFRSF19L) Fc fusion protein (Human, UniProt Q969Z4 26-162); test: as above
T4 construct: extracellular domain; bought
T4 sequence (looked up): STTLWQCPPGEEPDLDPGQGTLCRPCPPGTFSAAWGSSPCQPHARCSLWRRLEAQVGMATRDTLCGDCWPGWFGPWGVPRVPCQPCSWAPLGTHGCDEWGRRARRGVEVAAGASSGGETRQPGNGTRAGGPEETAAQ
Excerpt: as §3, §4

[5] = target: T5, HVEM (TNFRSF14) Fc fusion protein (Human, UniProt Q92956 39-202); test: as above
T5 construct: extracellular domain; bought
T5 sequence (looked up): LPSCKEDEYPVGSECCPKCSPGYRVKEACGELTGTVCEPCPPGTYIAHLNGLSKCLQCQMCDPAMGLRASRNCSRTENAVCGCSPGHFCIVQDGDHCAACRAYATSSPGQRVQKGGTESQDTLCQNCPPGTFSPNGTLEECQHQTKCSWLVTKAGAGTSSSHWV
Excerpt: as §3, §4

[6] = target: T6, TROY (TNFRSF19) Fc fusion protein (Human, UniProt Q9NS68 30-170); test: as above
T6 construct: extracellular domain; bought
T6 sequence (looked up): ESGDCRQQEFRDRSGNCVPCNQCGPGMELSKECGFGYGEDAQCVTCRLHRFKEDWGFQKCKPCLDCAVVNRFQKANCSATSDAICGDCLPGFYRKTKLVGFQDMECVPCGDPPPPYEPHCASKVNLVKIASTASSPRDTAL
Excerpt: as §3, §4

[7] = target: T7, TPP-2203 (TWEAKR-ECD-34-68-hIgGFc-His) (human); test: ELISA, TPP-2203 coated at 1 µg/ml, biotinylated IgG at 0.08 µg/ml (open bar) and 0.3 µg/ml (filled bar), Streptavidin-HRP, Amplex Red
T7 construct: dimeric; also called TWEAKR(34-68)-Fc fusion protein; truncated ectodomain 34-68
Description: as §1, §2

[8] = target: TWEAKR (TNFRSF12A, FN14), human, on tumor cell lines (human, UniProt Q9NP84 28-129); test: cell-based or functional assay
[9] = target: T8, TPP-2622 (TweakR-ECD-34-68-hIgGFc-His-S61A) (human); test: ELISA, IgG coated 1 ug/ml, HEK293 supernatant titrated
T8 construct: used as HEK293 supernatant
Description: (§5) These TWEAKR(34-68)-Fc muteins were expressed in HEK293 cells. To collect dose-response data, IgGs were coated at a concentration of 1 μg/ml in a 384-well Maxisorp ELISA plate and a serial 2fold dilution of the TWEAKR mutein containing supernatant was used as soluble binding partner. Detection was done with anti-HIS-HRP and Amplex Red.

[10] = target: T9, TPP-2620 (TweakR-ECD-34-68-hIgGFc-His-P59A) (human); test: as above
T9 construct: used as HEK293 supernatant
Description: as §5

[11] = target: T10, TPP-2621 (TweakR-ECD-34-68-hIgGFc-His-H60A) (human); test: as above
T10 construct: used as HEK293 supernatant
Description: as §5

[12] = target: T11, TPP-2612 (TweakR-ECD-34-68-hIgGFc-His-S43A) (human); test: as above
T11 construct: used as HEK293 supernatant
Description: as §5

[13] = target: T12, TPP-2609 (TweakR-ECD-34-68-hIgGFc-His-S40A) (human); test: as above
T12 construct: used as HEK293 supernatant
Description: as §5

[14] = target: T13, TPP-2618 (TweakR-ECD-34-68-hIgGFc-His-R56A) (human); test: as above
T13 construct: used as HEK293 supernatant
Description: as §5

[15] = target: T14, TPP-2611 (TweakR-ECD-34-68-hIgGFc-His-W42A) (human); test: as above
T14 construct: used as HEK293 supernatant; also called W42A (34-68 construct)
Description: as §5

[16] = target: T15, TPP-2623 (TweakR-ECD-34-68-hIgGFc-His-D62A) (human); test: as above
T15 construct: used as HEK293 supernatant
Description: as §5

[17] = target: T16, TPP-599 (HUMAN-TNFRSF12Aaa28-80-hIgG1-Fc) (human); test: ELISA, TWEAKR-Fc coated 62 ng/ml, biotin-IgG titrated; + means IC50 1 to 150 pM;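 also: biotinylated IgG binding to immobilized TWEAKR-Fc muteins, detected with Streptavidin-HRP and Amplex Red, IC50 derived from fitted dose-response curves of twofold serial dilutions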
T16 construct: dimeric; also called human TWEAKR Fc; TWEAKR-Fc
Description: To collect dose-response data, the different TWEAKR-Fc muteins were coated with a low concentration (62 ng/ml) in a 384-well Maxisorb ELISA plate and a serial 2fold dilution of biotinylated IgG starting with a concentration of 100 nM was used as soluble binding partner. Detection was done with Streptavidin-HRP and Amplex Red.
The dose-response data were fitted and IC50s determined.

binding result [1]: binds
% binding normalized by wt binding signal [2]: < 5%
binding result [3]: no binding (tested: 75 nM)
binding result [4]: no binding (tested: 75 nM)
binding result [5]: no binding (tested: 75 nM)
binding result [6]: no binding (tested: 75 nM)
binding result [7]: binds
B1: TPP-2090 (antibody, human IgG1, kappa, V domains shown)
VH: EVQLLESGGGLVQPGGSLRLSCAASGFTFSPYPMIWVRQAPGKGLEWVSYISPSGGSTHYADSVKGRFTISRDNSKNTLYLQMNSLRAEDTAVYYCARGGDTYFDYFDYWGQGTLVTVSS
VL: DIQMTQSPSSLSASVGDRVTITCRASQSISGYLNWYQQKPGKAPKLLIYQASSLQSGVPSRFSGSGSGTDFTLTISSLQPEDFATYYCQQSYTSPFITFGQGTKVEIKR
notes: Human IgG1

Fold induction of Caspase 3/7, 786-O cells, 100 ug/ml [8]: 1.1 fold
Fold induction of Caspase 3/7, A253 cells, 100 ug/ml [8]: 1.38 fold
Fold induction of Caspase 3/7, HT-29 cells, 100 ug/ml [8]: 1.49 fold
Fold induction of Caspase 3/7, NCI-H322 cells, 100 ug/ml [8]: 1.02 fold
Fold induction of Caspase 3/7, WiDr cells, 100 ug/ml [8]: 1.12 fold
binding result [9]: no binding
binding result [10]: no binding
binding result [11]: no binding
binding result [12]: no binding
binding result [13]: no binding
binding result [14]: no binding
binding result [15]: no binding
binding result [16]: no binding
binding result [17]: binds
B2: P4A8(TPP-1324) (antibody, human IgG1, kappa, V domains shown)
VH: QVQLVQSGAEVKKPGASVKVSCKGSGYTFTDYGMHWVRQAPGQGLEWMGVISTYNGYTNYNQKFKGRVTMTVDKSTSTAYMELRSLRSDDTAVYYCARAYYGNLYYAMDYWGQGTLVTVSS
VL: DIVLTQSPASLAVSLGQRATISCRASKSVSTSSYSYMHWYQQKPGQPPKLLIKYASNLESGVPARFSGSGSGTDFSLNIHPMEEDDTAMYFCQHSRELPFTFGGGTKLEIKR
notes: Human IgG1; variable domains from WO2009/140177 with constant region added
